Measured values published in patent US9018171B2, “Uses of an immunomodulatory protein (GMI) from Ganoderma microsporum” (Mycomagic Biotechnology Co., Ltd., priority 2010, dated 2015).
Read-outs that look alike come from different tables or passages of the source.

Legend:
[1] = tested on: A549 cells; experiment: Actin staining; assay type: cell-based, human
Procedure: A549 cells (1×10^4 cells/well) were seeded onto 24 wells with coverslip. A549 cells were pretreated with various concentrations of GMI (2, 4, 8 μg/ml) for 1 h before being stimulated with 10 ng/mL EGF for 23 h. A549 cells treated with or without EGF were stained with Texas Red®-X phalloidin and Alexa Fluor 488 DNase I conjugate to detect F-actin (red) and G-actin (green).
Cells were washed twice with PBS and fixed in a 3.7% paraformaldehyde-PBS solution for 10 min at room temperature. After two additional washes with PBS, cells were permeabilized with a solution of 0.1% Triton X-100 in PBS for 3 to 5 min and washed again with PBS. Texas Red-X phalloidin (2 units/mL) and Alexa Fluor 488 DNase I conjugate (9 μg/mL) were used to localize filamentous actin (F-actin) and G-actin. Fluorescent dyes were diluted with blocking solution (1% bovine serum albumin and 0.025% saponin in PBS) and added to coverslips for 60 min at room temperature. After three washes with PBS, coverslips were mounted on a microscope slide with Prolong Gold antifade reagent with DAPI (Life Technologies). F-actin cytoskeleton imaging was performed with a confocal laser scanning microscope (ZEISS LSM510 BETA) at ×400 magnification.

[2] = tested on: NCI-H226; assay type: cell-based
[3] = tested on: HCC-2998; experiment: NCI60 in vitro screening, Colon Cancer; assay type: cell-based
[4] = tested on: SW-620; experiment: NCI60 in vitro screening, Colon Cancer; assay type: cell-based
[5] = tested on: SNB-19; experiment: NCI60 in vitro screening, CNS Cancer; assay type: cell-based
[6] = tested on: M14; experiment: NCI60 in vitro screening, Melanoma; assay type: cell-based
[7] = tested on: MDA-MB-435; experiment: NCI60 in vitro screening, Melanoma; assay type: cell-based
[8] = tested on: UACC-62; experiment: NCI60 in vitro screening, Melanoma; assay type: cell-based
[9] = tested on: OVCAR-3; experiment: NCI60 in vitro screening, Ovarian Cancer; assay type: cell-based
[10] = tested on: OVCAR-5; experiment: NCI60 in vitro screening, Ovarian Cancer; assay type: cell-based
[11] = tested on: ACHN; experiment: NCI60 in vitro screening, Renal Cancer; assay type: cell-based
[12] = tested on: SN12C; experiment: NCI60 in vitro screening, Renal Cancer; assay type: cell-based
[13] = tested on: PC-3; experiment: NCI60 in vitro screening, Prostate Cancer; assay type: cell-based
[14] = tested on: T-47D; experiment: NCI60 in vitro screening, Breast Cancer; assay type: cell-based
[15] = tested on: MDA-MB-468; experiment: NCI60 in vitro screening, Breast Cancer; assay type: cell-based
[16] = tested on: HOP-92; assay type: cell-based; details: HOP-92, one dose

B1: GMI: immunomodulatory protein from Ganoderma microsporum, amino acid sequence SEQ ID NO: 3, manufactured by Mycomagic Biotechnology Co., Ltd. (protein, listed as Ganoderma microsporum)
chain: MSDTALIFTLAWNVKQLAFDYTPNWGRGRPSSFIDTVTFPTVLTDKAYTYRVVVSGKDLGVRPSYAVESDGSQKINFLEYNSGYGIADTNTIQVYVIDPDTGNNFIVAQWN
- elongation and polymerization of F-actin and G-actin ([1]; A549 cells treated with EGF or GMI alone): abrogated
- filopodia formation ([1]; A549 cells, GMI 2, 4, 8 μg/ml, EGF 10 ng/mL): fewer filopodia fibers
- focal contact size ([1]; A549 cells, GMI alone and combined with EGF): reduced by GMI in a dose-dependent manner
- TGI ([2]; NCI-H226): >1.25E2
- Percent Growth ([2]; NCI-H226, Log10 Concentration 0.1): 101%
- Percent Growth ([2]; NCI-H226, Log10 Concentration 1.1): 65%
- Percent Growth ([2]; NCI-H226, Log10 Concentration 2.1): 23%
- Percent Growth ([2]; NCI-H226, Log10 Concentration −0.9): 99%
- Percent Growth ([2]; NCI-H226, Log10 Concentration −1.9): 100%
- Growth Percent ([2]; NCI-H226, one dose): 83.77%
- GI50 ([2]; NCI-H226, in µg/mL): 2.90E1
- TGI ([3]; HCC-2998): >1.25E2
- Percent Growth ([3]; HCC-2998, Log10 Concentration 0.1): 105%
- Percent Growth ([3]; HCC-2998, Log10 Concentration 1.1): 93%
- Percent Growth ([3]; HCC-2998, Log10 Concentration 2.1): 88%
- Percent Growth ([3]; HCC-2998, Log10 Concentration −0.9): 99%
- Percent Growth ([3]; HCC-2998, Log10 Concentration −1.9): 103%
- Growth Percent ([3]; HCC-2998, one dose): 132.04%
- TGI ([4]; SW-620): >1.25E2
- Percent Growth ([4]; SW-620, Log10 Concentration 0.1): 102%
- Percent Growth ([4]; SW-620, Log10 Concentration 1.1): 95%
- Percent Growth ([4]; SW-620, Log10 Concentration 2.1): 53%
- Percent Growth ([4]; SW-620, Log10 Concentration −0.9): 100%
- Percent Growth ([4]; SW-620, Log10 Concentration −1.9): 102%
- Growth Percent ([4]; SW-620, one dose): 87.57%
- TGI ([5]; SNB-19): 4.27E1
- Percent Growth ([5]; SNB-19, Log10 Concentration 0.1): 95%
- Percent Growth ([5]; SNB-19, Log10 Concentration 1.1): 66%
- Percent Growth ([5]; SNB-19, Log10 Concentration 2.1): −58%
- Percent Growth ([5]; SNB-19, Log10 Concentration −0.9): 98%
- Percent Growth ([5]; SNB-19, Log10 Concentration −1.9): 98%
- Growth Percent ([5]; SNB-19, one dose): 58.70%
- GI50 ([5]; SNB-19, in µg/mL): 1.69E1
- LC50 ([5]; SNB-19, in µg/mL): 1.08E2
- TGI ([6]; M14): >1.25E2
- Percent Growth ([6]; M14, Log10 Concentration 0.1): 106%
- Percent Growth ([6]; M14, Log10 Concentration 1.1): 76%
- Percent Growth ([6]; M14, Log10 Concentration 2.1): 1%
- Percent Growth ([6]; M14, Log10 Concentration −0.9): 96%
- Percent Growth ([6]; M14, Log10 Concentration −1.9): 98%
- Growth Percent ([6]; M14, one dose): 94.87%
- GI50 ([6]; M14, in µg/mL): 2.78E1
- TGI ([7]; MDA-MB-435): >1.25E2
- Percent Growth ([7]; MDA-MB-435, Log10 Concentration 0.1): 91%
- Percent Growth ([7]; MDA-MB-435, Log10 Concentration 1.1): 85%
- Percent Growth ([7]; MDA-MB-435, Log10 Concentration 2.1): 3%
- Percent Growth ([7]; MDA-MB-435, Log10 Concentration −0.9): 96%
- Percent Growth ([7]; MDA-MB-435, Log10 Concentration −1.9): 101%
- Growth Percent ([7]; MDA-MB-435, one dose): 79.29%
- GI50 ([7]; MDA-MB-435, in µg/mL): 3.34E1
- TGI ([8]; UACC-62): >1.25E2
- Percent Growth ([8]; UACC-62, Log10 Concentration 0.1): 99%
- Percent Growth ([8]; UACC-62, Log10 Concentration 1.1): 106%
- Percent Growth ([8]; UACC-62, Log10 Concentration 2.1): 68%
- Percent Growth ([8]; UACC-62, Log10 Concentration −0.9): 101%
- Percent Growth ([8]; UACC-62, Log10 Concentration −1.9): 105%
- Growth Percent ([8]; UACC-62, one dose): 115.96%
- TGI ([9]; OVCAR-3): >1.25E2
- Percent Growth ([9]; OVCAR-3, Log10 Concentration 0.1): 108%
- Percent Growth ([9]; OVCAR-3, Log10 Concentration 1.1): 85%
- Percent Growth ([9]; OVCAR-3, Log10 Concentration 2.1): 26%
- Percent Growth ([9]; OVCAR-3, Log10 Concentration −0.9): 102%
- Percent Growth ([9]; OVCAR-3, Log10 Concentration −1.9): 99%
- Growth Percent ([9]; OVCAR-3, one dose): 94.57%
- GI50 ([9]; OVCAR-3, in µg/mL): 4.90E1
- TGI ([10]; OVCAR-5): >1.25E2
- Percent Growth ([10]; OVCAR-5, Log10 Concentration 0.1): 98%
- Percent Growth ([10]; OVCAR-5, Log10 Concentration 1.1): 89%
- Percent Growth ([10]; OVCAR-5, Log10 Concentration 2.1): 66%
- Percent Growth ([10]; OVCAR-5, Log10 Concentration −0.9): 100%
- Percent Growth ([10]; OVCAR-5, Log10 Concentration −1.9): 101%
- Growth Percent ([10]; OVCAR-5, one dose): 107.85%
- TGI [11]: 3.62E1
- Percent Growth ([11]; Log10 Concentration 0.1): 103%
- Percent Growth ([11]; Log10 Concentration 1.1): 36%
- Percent Growth ([11]; Log10 Concentration 2.1): −42%
- Percent Growth ([11]; Log10 Concentration −0.9): 99%
- Percent Growth ([11]; Log10 Concentration −1.9): 109%
- GI50 ([11]; in µg/mL): 7.65E0
- Growth Percent ([11]; one dose): −33.94%
- TGI [12]: >1.25E2
- Percent Growth ([12]; Log10 Concentration 0.1): 99%
- Percent Growth ([12]; Log10 Concentration 1.1): 81%
- Percent Growth ([12]; Log10 Concentration 2.1): 30%
- Percent Growth ([12]; Log10 Concentration −0.9): 104%
- Percent Growth ([12]; Log10 Concentration −1.9): 102%
- GI50 ([12]; in µg/mL): 5.05E1
- Growth Percent ([12]; one dose): 74.30%
- TGI ([13]; PC-3): 3.87E1
- Percent Growth ([13]; PC-3, Log10 Concentration 0.1): 98%
- Percent Growth ([13]; PC-3, Log10 Concentration 1.1): 73%
- Percent Growth ([13]; PC-3, Log10 Concentration 2.1): −76%
- Percent Growth ([13]; PC-3, Log10 Concentration −0.9): 102%
- Percent Growth ([13]; PC-3, Log10 Concentration −1.9): 104%
- Growth Percent ([13]; PC-3, one dose): 79.73%
- GI50 ([13]; PC-3, in µg/mL): 1.79E1
- LC50 ([13]; PC-3, in µg/mL): 8.34E1
- TGI [14]: >1.25E2
- Percent Growth ([14]; Log10 Concentration 0.1): 88%
- Percent Growth ([14]; Log10 Concentration 1.1): 43%
- Percent Growth ([14]; Log10 Concentration 2.1): 13%
- Percent Growth ([14]; Log10 Concentration −0.9): 96%
- Percent Growth ([14]; Log10 Concentration −1.9): 101%
- GI50 ([14]; in µg/mL): 8.63E0
- Growth Percent ([14]; one dose): 28.25%
- TGI ([15]; MDA-MB-468): 1.18E1
- Percent Growth ([15]; MDA-MB-468, Log10 Concentration 0.1): 115%
- Percent Growth ([15]; MDA-MB-468, Log10 Concentration 1.1): −3%
- Percent Growth ([15]; MDA-MB-468, Log10 Concentration 2.1): −24%
- Percent Growth ([15]; MDA-MB-468, Log10 Concentration −0.9): 100%
- Percent Growth ([15]; MDA-MB-468, Log10 Concentration −1.9): 104%
- Growth Percent ([15]; MDA-MB-468, one dose): 50.90%
- GI50 ([15]; MDA-MB-468, in µg/mL): 4.45E0
- Growth Percent [16]: 22.29%
